# Experimental data reported in the supplement of paper PMC9170038.
# System: MS2 coat protein
# Assay: apparent KD of MS2 coat protein; higher = weaker reporter binding
# Conditions: Eterna round: R107
# Procedure, shortened: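 For every design, apparent KD is the median of normalised binding-curve fits from its clusters. The RNA switches were transcribed on-chip from Illumina sequencing clusters and titrated with SNAP-549-labelled MS2 coat protein (twofold steps, 0.7 or 1.5 nM to 3 µM; 0.8–1.5 h to 10–20 min per step). Titrations used 100 mM Tris-HCl pH 7.5, 80 mM KCl, 4 mM MgCl2, without or with constant ligand.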
# [1] = input ligand: theophylline 20 uM
# [2] = input ligand: theophylline 2 mM
# [3] = input ligand: tryptophan 2.4 mM
Sequence,apparent KD of MS2 coat protein (input ligand: arginine 13.2 mM),apparent KD of MS2 coat protein (input ligand: none),apparent KD of MS2 coat protein [1],apparent KD of MS2 coat protein [2],apparent KD of MS2 coat protein [3]
AGUCUUGAACGAAGGAGCGACGUACAUGAGGAUCACCCAUGUGGGAGCGAAAGCUCCCAACGUCAGGUAGGUCGCGUUCGAGACA [SS-ArgB29],0.0169 µM,0.0177 µM,0.0247 µM,0.0204 µM,0.0185 µM
AGUCUUGAACGAAGGAGCGACGUACAUGAGGAUCACCCAUGUGUAGGAGCGAAAGCUCCACGUCAGGUAGGUCGCGUUCGAGACA [Omei Arginine B SS A v4],0.0121 µM,0.0117 µM,0.0144 µM,0.0125 µM,0.0139 µM
AGUGUCGGAGCGGCCGCCACUAGCACAUCUGGUCGCCAUGGCAACAUGAGGAUCACCCAUGUUGCUAGGACCGGGCUCAAUAUUU [Maengele],0.00837 µM,,0.0109 µM,0.0088 µM,
AGUUUAGACACGGCCGCCACUCGUGACAGAUUUAGCAGUGGUCAACAUGAGGAUCACCCAUGUCUGAGGACCGGGUGUUGAGUUU [XTryp B #6],0.0789 µM,,0.176 µM,0.217 µM,
AUAAAUAAUAAAUAAAAUAAAAUGGGUGAACGAGGACCGGUACGGCCGCCACUCGGACAUGAGGAUCACCCAUGUCCAUGUGAAA [#21 Exclusion Tryptophan A],0.0156 µM,,0.0203 µM,0.0227 µM,
AUAACAUGAGGAUCACCCAUGUAAGCUGAAGGAGCGCUGGAAACAGCAGGUAGGUCGCAGCAUGUUUCCAAUCCUCAUGGAAACA [(M1)-(M2)-(Arg1)-(Arg2)-(A)'-(M)'-(A)''_Design9],0.0534 µM,0.152 µM,0.159 µM,0.136 µM,0.105 µM
AUAACGAGUGGUGGAAUACAUGGGUGAUAACGAGGACCGGUACGGCCGCCACUCGAUAACAUGAGGAUCACCCAUGUAAUAAUAA [|T'-M'-Trp-Ms2|_Design18],0.0573 µM,,0.16 µM,0.139 µM,
AUAACUGUAAUAAACCGCAGGCUAGUGGAAGGAGCGCGGAAUAACGCAGGUAGGUCGCCACAAACUUGAGGAUCACCCAGGUGGC [SSAA NP+V+V2 #7 Diff Apt],0.0381 µM,0.049 µM,0.0788 µM,0.0577 µM,0.0486 µM
AUAAGCUGUACCGGAAUAUCCUCAUGUAUACGAGGACCGGUACGGCCGCCACUCGAUAACAUGAGGAUCACCCAUGUAAUAAUAA [|T'-M'-Trp-Ms2|_Design20],0.0142 µM,,0.0154 µM,0.0145 µM,
AUAAGUAAUGUUUCGUGUAUUAUUACAGAUACCAGACUAUCCUAUGUCCCUUGGCAGCUGGAUUACAUGAGGAUCACCCAUGUUG [JR_ExcTheophyA_Sub001],0.0157 µM,,0.0203 µM,,0.0171 µM
AUAAGUAAUGUUUCGUGUUUUAUUACAGAUACCAGACUAUACGUUGUCCCUUGGCAGCUGGAUUACAUGAGGAUCACCCAUGUUG [JR_ExcTheophyA_Sub003],0.0176 µM,,0.0265 µM,,0.0185 µM
AUAAUAAUCCUCAUGUAAGGUCCUCGAUAACGAGGACCGGUACGGCCGCCACUCGAACAUGAGGAUCACCCAUGUACGAGGACCA [M' - T' - T - MS2 - T'' Design 1],0.0196 µM,,0.037 µM,0.0382 µM,
AUAAUAGGGAUAAUUAGUUUUAGGUCCAGUCGAGGACCGGUACGGCCGCCACUCGUACAGAAAUACAUGAGGAUCACCCAUGUUA [JR_SSTryptoA_Sub005],0.014 µM,0.0136 µM,0.0215 µM,0.0151 µM,0.0161 µM
AUACAUGAGGAUCACCCAUGUAUAGAUGAAGGAGCGACCAGAGGGUCAGGUAGGUCGCAUCACAUGAGGAUCACCCAUGUAUCGA [DOUBLE!!! :-D #8],0.0336 µM,0.0568 µM,0.053 µM,0.0672 µM,0.0471 µM
AUACAUGAGGAUCACCCAUGUCCUCGUGAUCGAGGACCGGUACGGCCGCCACUCGGUCCUCGCGAGGAGGAGUCAAAGACUCCUA [Omei Trp A SS A v6],0.0972 µM,,0.23 µM,0.24 µM,
AUACAUGAGGAUCACCCAUGUCCUCGUGAUCGAGGACCGGUACGGCCGCCACUCGGUCCUCGCGAGGUGGAGUCAAAGACUCCAA [Omei Trp A SS A v5],0.109 µM,,0.166 µM,0.137 µM,
AUACAUGAGGAUCACCCAUGUUAUAGUGAAGGAGCGACAUUUAUGUCAGGUAGGUCGCACUAAAGUUUAAUAAUUCUUUGAUCUU [JR_SSArginiA_Sub011],0.0186 µM,0.0157 µM,0.0249 µM,0.0156 µM,0.0186 µM
AUACAUGAGUGUUUGAUUAUAGAAACUGAAGGAGCGUGGUAGUACACAGGUAGGUCGCAGUAAAUACAUGAGGAUCACCCAUGUU [JR_Nu_SSArginiA_Sub026],0.0292 µM,0.0329 µM,0.0365 µM,0.0365 µM,0.0384 µM
AUACCUAAUGUUACGUUUUCCUUUUCAGAUACCAGACUUUACGUUGUCCCUUGGCAGCUGUAUUACAUGAGGAUCACCCAUGUUG [JR_SSTheophyA_Sub008],0.0198 µM,,0.0267 µM,,0.0204 µM

Sequence,apparent KD of MS2 coat protein (input ligand: arginine 13.2 mM),apparent KD of MS2 coat protein (input ligand: none),apparent KD of MS2 coat protein [1],apparent KD of MS2 coat protein [2],apparent KD of MS2 coat protein [3]
AUACGGAACAGAAGGAGCGCACCGACAUGAGGAUCACCCAUGUGGGAUGGGACUCUUUUGGUGCAGGUAGGUCGCUGUCACGCAU [Maistile],0.129 µM,0.035 µM,0.0519 µM,0.044 µM,0.0355 µM
AUAGUUAUCAGAAGGAGCGUCAUUAACAUGAGGAUCACCCAUGUAACAUUGAAUUCGAUGAGACAGGUAGGUCGCUGAAUAUUAA [SS-ArgB28],0.0323 µM,0.0396 µM,0.048 µM,0.0417 µM,0.036 µM
AUAUAUACAUGAGGAUCACCCAUGUUAUUUCGAGGACCGGUACGGCCGCCACUCGAUAGAGUAGAAGUAACAUUUGUUAGAUGAU [JR_SSTryptoA_Sub012],0.0239 µM,,0.0252 µM,0.0244 µM,
AUAUUUAACGGAAGGAGCGGGAAAUAAUCAUGAUGACAUGAGGAUCACCCAUGUCUUAAAACCCAGGUAGGUCGCCGAAUAAUAA [Same State - Arginine B],0.0121 µM,0.0111 µM,0.0145 µM,0.013 µM,0.0117 µM
AUCAUAAUAGACUCGUUUGAUUAUAUGGAACGAGGACCGGUACGGCCGCCACUCGUGAUUUACAUGAGGAUCACCCAUGUUAGCA [JR_ExcTryptoA_Sub005],0.017 µM,,0.0235 µM,0.0194 µM,
AUCCACAGCCGAAGGAGCGCUAGAAGAUGACAUGAGGAUCACCCAUGUGUGUGAUGUGGCUAGCAGGUAGGUCGCGGAGUGGAUU [Exclusion - Arginine B (Freestyle 12)],0.0316 µM,0.0243 µM,0.0355 µM,0.0262 µM,0.0247 µM
AUCCAGAGCCGAAGGAGCGCUAGAAGAUGACAUGAGGAUCACCCAUGUGUGUGAUGUGGCUAGCAGGUAGGUCGCGGACUGGAUU [Exclusion - Arginine B (Freestyle 13)],0.0201 µM,0.0224 µM,0.0281 µM,0.0335 µM,0.0187 µM
AUCGGCCAGGGAAGGAGCGUGAAGACAUGAGGAUCACCCAUGUAGAGGCGCCGAAGGCGUUCGCAGGUAGGUCGCCCUGGCUGAU [#1 Same State - Arginine B Attempt #27 (HarryS)],0.0147 µM,0.0147 µM,0.0238 µM,0.0177 µM,0.0158 µM
AUCGGGCCUUUAGAACCGCCGUUCCCACCUCGAGGACCGGUACGGCCGCCACUCGGGUGACAUGAGGAUCACCCAUGUGGACGAA [Gexebidive],0.031 µM,0.181 µM,0.432 µM,0.737 µM,0.284 µM
AUCGUACCUAAUGAUACCAGCAAGUGAUCAUAACAUGAGGAUCACCCAUGUAAUCAGUGAUGCCCUUGGCAGCAUAAUCGAUACA [Same State - Theophylline B (Freestyle 3)],0.103 µM,,0.17 µM,,0.129 µM
AUGCACAUCAGAAGGAGCGUCUUGGCCAAUCUAGGCCAACAUGAGGAUCACCCAUGUGCAGGACAGGUAGGUCGCUGAUGUGUAG [Arg B SS t8],0.0116 µM,0.0123 µM,0.0178 µM,0.0145 µM,0.0124 µM
AUGCAGAACACGGCCGCCACUCCAUGUAUACAUGAGGAUCACCCAUGUAAUUUGUAUUUUUUAUAGAGGACCGGGUGAAAUGCAA [JR_SSTryptoB_Sub012],0.0267 µM,,0.0387 µM,0.0429 µM,
AUGCAUAGCGGAAGGAGCGCAAUAGAAUGACAUGAGGAUCACCCAUGUGUGUGAUGUGGGUUGCAGGUAGGUCGCCGAGUGGUAU [Exclusion - Arginine B (Freestyle 2)],0.084 µM,0.092 µM,0.128 µM,0.108 µM,0.0905 µM
AUGCAUGUCAGAAGGAGCGUCUUUAACAUGAGGAUCACCCAUGUAACAUUGAAUUCGAUGAGACAGGUAGGUCGCUGAAUAGUAA [JR_SSArginiB_Sub020],0.0211 µM,0.0828 µM,0.0723 µM,0.0625 µM,0.0429 µM
AUGCGCUAUAUGGAUACCAGUAUGAUAAUUGACAUGAGGAUCACCCAUGUGAGCUCUACCUACCCUUGGCAGCCAACCCUAUUUG [theeternabot_sameState_MS2_Theo_B_26],0.0217 µM,,0.0299 µM,,0.023 µM
AUGCGGUGCGGAAGGAGCGAGUUUGCCUAUUUACAUGAGGAUCACCCAUGUCCUAAUGGGACUCAGGUAGGUCGCCGUUGUUGCA [Same State Arginine B GF30],0.042 µM,0.045 µM,0.0714 µM,0.0479 µM,0.0416 µM
AUGCUGACAAGGAGGUGUUCCUCAGCUGAUACCAGCCUGGAAACAGGCCCUUGGCAGCAGCACAUGAGGAUCACCCAUGUAAUAA [(T)'-(M)'-(T1)-(T2)-(M1)-(M2)_Design1(Mismatches)],0.0565 µM,0.027 µM,0.517 µM,0.0124 µM,0.0334 µM
AUGGUCGACGAUCUGCGAAAAGCAGAUCGACGAGGACCGGUACGGCCGCCACUCGUGUUUAUUUAACAUGAGGAUCACCCAUGUA [#14Tryptophan A Same State],0.0706 µM,,0.123 µM,0.142 µM,
AUGUAUGUCAGAAGGAGCGUCUUUAACAUGAGGAUCACCCAUGUAACAUUGAAUUCGAUGAGACAGGUAGGUCGCUGAAUAGUAA [SS-ArgB25],0.0297 µM,0.035 µM,0.066 µM,0.0188 µM,0.0219 µM
